In assay [1] the target is T1, human CEACAM5, recombinant (R&D Systems #4128-CM-050) (human, UniProt P06731 35-685).
T1 construct: Bought; coated in ELISA and used as monomeric analyte in Octet; also called hCEACAM-5; Human CEACAM5-His; not shown: His tag
T1 sequence (looked up): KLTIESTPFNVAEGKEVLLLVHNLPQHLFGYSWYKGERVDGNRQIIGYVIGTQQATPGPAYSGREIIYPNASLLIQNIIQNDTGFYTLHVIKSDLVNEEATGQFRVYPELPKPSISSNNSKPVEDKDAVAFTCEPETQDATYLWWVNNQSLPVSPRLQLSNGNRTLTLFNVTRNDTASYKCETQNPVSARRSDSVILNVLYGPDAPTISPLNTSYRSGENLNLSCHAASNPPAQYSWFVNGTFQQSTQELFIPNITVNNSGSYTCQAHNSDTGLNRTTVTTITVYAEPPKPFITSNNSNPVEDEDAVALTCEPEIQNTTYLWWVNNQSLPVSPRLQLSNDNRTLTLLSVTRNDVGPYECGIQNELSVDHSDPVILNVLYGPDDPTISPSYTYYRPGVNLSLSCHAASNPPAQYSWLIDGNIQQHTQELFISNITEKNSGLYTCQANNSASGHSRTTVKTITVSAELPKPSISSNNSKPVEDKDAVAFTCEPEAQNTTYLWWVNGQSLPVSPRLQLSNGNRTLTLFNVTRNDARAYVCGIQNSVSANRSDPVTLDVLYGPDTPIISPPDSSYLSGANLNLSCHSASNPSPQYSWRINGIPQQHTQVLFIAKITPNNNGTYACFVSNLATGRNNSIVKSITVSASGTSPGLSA
Put plainly: ELISA, antigen coated at 0.5 µg/mL, IgG1 antibody at 10 µg/ml, anti-human kappa-HRP, luminescence. Here is the method: (§1) 96-well plates were coated with 0.5 μg/mL antigen, hCEACAM-5 (4128-CM-050, R&D Systems), hCEACAM-1 (2244-CM-050, R&D Systems), hCEACAM-6(3934-CM-050, R&D Systems) or CEACAM-8 (9639-CM-050, R&D Systems) in PBS over night at 4° C. After washing with PBS/0.05% Tween 20 (PBST), the plates were blocked with PBST, 2% BSA for at least 30 minutes at room temperature before a second round of washing. […] After washing, plates were incubated with 50 μl detection antibody (0.5 μg/ml HRP conjugated goat anti human-kappa light chain, #STAR127P, AbD Serotec). Finally, a final round of washing was performed and bound complexes detected using SuperSignal Pico Luminescent as substrate and luminescence signals were measured using Fluostar Optima.

In assay [2] the target is T2, human CEACAM1, recombinant (R&D Systems #2244-CM-050) (human, UniProt P13688 35-428).
T2 construct: also called hCEACAM-1
T2 sequence (looked up): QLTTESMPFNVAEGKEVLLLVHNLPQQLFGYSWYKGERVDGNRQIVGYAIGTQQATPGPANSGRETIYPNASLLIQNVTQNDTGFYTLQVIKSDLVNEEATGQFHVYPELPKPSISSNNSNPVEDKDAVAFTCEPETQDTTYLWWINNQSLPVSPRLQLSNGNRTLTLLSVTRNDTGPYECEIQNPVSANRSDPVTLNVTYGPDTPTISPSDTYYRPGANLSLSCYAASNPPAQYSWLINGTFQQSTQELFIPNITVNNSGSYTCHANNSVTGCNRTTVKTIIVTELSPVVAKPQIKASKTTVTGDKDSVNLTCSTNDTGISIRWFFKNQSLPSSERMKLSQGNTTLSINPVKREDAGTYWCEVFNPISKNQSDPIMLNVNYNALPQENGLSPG
The assay is described as above. Here is the method: as §1

B1: AC_05087 (antibody, V domains shown)
VH: EVQLLESGGGLVQPGGSLRLSCAASGFTFSSSYMGWVRQAPGKGLEWVSSIGSGSYSTSYADSVKGRFTISRDNSKNTLYLQMNSLRAEDTAVYYCARYPPVPFPPHLDYWGQGTLVTVSS
VL: DIQMTQSPSSLSASVGDRVTITCRASQSISSYLNWYQQKPGKAPKLLIYAASSLQSGVPSRFSGSGSGTDFTLTISSLQPEDFATYYCQQAGNPHTFGQGTKLEIK
In the case of B1, the binding result in assay [1] and in assay [2] was “binds” throughout.

B2: AC_05100 (antibody, V domains shown)
VH: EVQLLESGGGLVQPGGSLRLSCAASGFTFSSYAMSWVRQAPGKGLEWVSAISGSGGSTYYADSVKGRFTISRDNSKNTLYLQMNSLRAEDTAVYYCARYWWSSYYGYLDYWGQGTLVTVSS
VL: DIQMTQSPSSLSASVGDRVTITCRASQSISSYLNWYQQKPGKAPKLLIYAASSLQSGVPSRFSGSGSGTDFTLTISSLQPEDFATYYCQQAGNPHTFGQGTKLEIK
Turning to B2, the binding result in assay [1] and in assay [2] was “no binding (tested: 10 µg/ml)” each time.

B3: AC_05098 (antibody, V domains shown)
VH: EVQLLESGGGLVQPGGSLRLSCAASGFTFGSYYMSWVRQAPGKGLEWVSGISGYGYYTGYADSVKGRFTISRDNSKNTLYLQMNSLRAEDTAVYYCARNGYGVIDYWGQGTLVTVSS
VL: DIQMTQSPSSLSASVGDRVTITCRASQSIRDYLNWYQQKPGKAPKLLIYAASSLQSGVPSRFSGSGSGTDFTLTISSLQPEDFATYYCQQGTFPFTFGQGTKLEIK
For the molecule B3, the binding result in assay [1] and in assay [2] was “no binding (tested: 10 µg/ml)” throughout.

B4: AC_05082 (antibody, V domains shown)
VH: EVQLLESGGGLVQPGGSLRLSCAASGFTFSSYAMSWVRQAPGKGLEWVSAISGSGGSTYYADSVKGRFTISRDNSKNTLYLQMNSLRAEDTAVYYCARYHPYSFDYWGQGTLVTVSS
VL: DIQMTQSPSSLSASVGDRVTITCRASQSISSYLNWYQQKPGKAPKLLIYAASSLQSGVPSRFSGSGSGTDFTLTISSLQPEDFATYYCQQAGNPHTFGQGTKLEIK
Consider B4, for which the binding result in assay [1] and in assay [2] was “no binding (tested: 10 µg/ml)” throughout.

B5: AC_05096 (antibody, human IgG1, kappa, V domains shown)
VH: EVQLLESGGGLVQPGGSLRLSCAASGFTFSSSYMGWVRQAPGKGLEWVSSIGSGSYSTSYADSVKGRFTISRDNSKNTLYLQMNSLRAEDTAVYYCARYPSVPFRPHLDYWGQGTLVTVSS
VL: DIQMTQSPSSLSASVGDRVTITCRASQSISSYLNWYQQKPGKAPKLLIYAASSLQSGVPSRFSGSGSGTDFTLTISSLQPEDFATYYCQQAGNPHTFGQGTKLEIKR
Consider B5, for which the binding result is reported as “binds” in assay [1] and “no binding (tested: 10 µg/ml)” in assay [2].

B6: AC_05092 (antibody, V domains shown)
VH: EVQLLESGGGLVQPGGSLRLSCAASGFTFSSSYMGWVRQAPGKGLEWVSSIGSGSYSTSYADSVKGRFTISRDNSKNTLYLQMNSLRAEDTAVYYCARYPSVPFPPHLDYWGQGTLVTVSS
VL: DIQMTQSPSSLSASVGDRVTITCRASQSISSDLNWYQQKPGKAPKLLIYAASSLQSGVPSRFSGSGSGTDFTLTISSLQPEDFATYYCQQAGNPHTFGQGTKLEIK
As to B6, the binding result in assay [1] and in assay [2] was “no binding (tested: 10 µg/ml)” each time.

B7: AC_05095 (antibody, V domains shown)
VH: EVQLLESGGGLVQPGGSLRLSCAASGFTFSSSYMGWVRQAPGKGLEWVSSIGSGSYSTSYADSVKGRFTISRDNSKNTLYLQMNSLRAEDTAVYYCARYPSVPFPSHLDYWGQGTLVTVSS
VL: DIQMTQSPSSLSASVGDRVTITCRASQSISSYLNWYQQKPGKAPKLLIYAASSLQSGVPSRFSGSGSGTDFTLTISSLQPEDFATYYCQQAGNPHTFGQGTKLEIK
Consider B7, for which the binding result in assay [1] and in assay [2] was “binds” in each case.

B8: AC_05083 (antibody, V domains shown)
VH: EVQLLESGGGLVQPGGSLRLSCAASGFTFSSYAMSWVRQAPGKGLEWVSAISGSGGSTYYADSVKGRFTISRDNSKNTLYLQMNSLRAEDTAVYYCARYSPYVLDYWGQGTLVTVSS
VL: DIQMTQSPSSLSASVGDRVTITCRASQSIRGYLNWYQQKPGKAPKLLIYAASSLQSGVPSRFSGSGSGTDFTLTISSLQPEDFATYYCQQPSYPSLFTFGQGTKLEIK
On to B8, for which the binding result in assay [1] and in assay [2] was “binds” each time.
